These results are taken from the supplement of paper PMC9942255.

The subject of this series is Bacillus subtilis DB104 (SP-AmyQ fusion secretion). As to the kind of experiment: AmyQ secretion efficiency, weighted average sort bin (1 = best secretion, 10 = worst) (bin number (weighted average, 1-10)); higher = lower secretion efficiency. A digest of the protocol:
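The secretion score was taken as the read-frequency-weighted mean bin number, normalised to beads per bin, with low-abundance sequences excluded. Bins came from large-particle flow cytometry sorting of occupied alginate beads (~65 nL, about 0.3 cells each, with fluorescein-starch) into 10 equally populated groups by green/red fluorescence ratio after about 13 h at room temperature and nile red staining. The cells were a B. subtilis DB104 library with mature AmyQ fused to designed signal peptides, integrated at amyE, and each bin's amplicons were Illumina-sequenced.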

Turning to MKKRKRRNFKRFIAAFLVLALMISGVPADVLAKST, the AmyQ secretion efficiency came to 2.12.

Take MRKWYFILLAGVLTSVILAFVYDKTKYNEE: the AmyQ secretion efficiency was determined as 4.09.

MRMLWRSSSQCGLALTLAPCAQAAEP came in with an AmyQ secretion efficiency of 8.18.

For the sequence MIAYFGKCLLLVTIMFLGVLFGMQQGNHG, the AmyQ secretion efficiency came to 5.32.

With MKSKGSIMACLILFSFTITTFINTETISFFSN, the AmyQ secretion efficiency came out at 6.76.

As for MTGTTVSTAIIIISVMLSFVIAVFHTIHASELTP, the AmyQ secretion efficiency was determined as 4.15.

Take MKRLLVSLRVWMVFLMNWVTPDRKTPAAAVY: the AmyQ secretion efficiency amounted to 7.55.

As to MRKNRIKRKKVLSLGLLSFMVTPVSAASK, the AmyQ secretion efficiency turned out to be 7.91.

Take MGMTSNLSLGVASAALGLALVGGGTWAAFN: the AmyQ secretion efficiency was 8.22.

For the sequence MGSTSFILWISLLFALTLIFTMAFSNMSAQAAGK, the AmyQ secretion efficiency is 6.79.

The sequence MRNLTKTSLLLAGLCQMVFVTHASAEES showed an AmyQ secretion efficiency of 3.18.

MKVPKTMNFSFTLLSTAAGLLLSLTATSVSAHYV had an AmyQ secretion efficiency of 5.47.

MFNRLFRVCFLAALIMAFVLTFFVYAQKP displayed an AmyQ secretion efficiency of 5.95.

Consider MIAYFGKCLLLVTIMFLGVLFGMQQYNHG, for which the AmyQ secretion efficiency was determined as 6.5.

In turn, MKKRLIAPMLLSAASLAFFAMSGSAQVAAY showed an AmyQ secretion efficiency of 5.79.

MGLGKKLSVAVAASFMSLSISLPGVQMAEG came in with an AmyQ secretion efficiency of 3.92.

For MPYLKRVLLLLVTGLFMSLFAVTATASAQDD, the AmyQ secretion efficiency came out at 3.08.

As to MTMLRKIIGWILLLCIIPLFAFTVIASAKEV, the AmyQ secretion efficiency is 4.98.

With MKKLLAAGIIGLLTVRRRKKKSFAAEK, the AmyQ secretion efficiency stood at 7.21.

MHLIRARRRVCLAVVLIAGCRFNEDQHQAEGENT registered an AmyQ secretion efficiency of 6.03.

For MKKRLIAPMLLSAASLAFFAMSGSMQAAAY, the AmyQ secretion efficiency turned out to be 5.75.

MKSCKQLIVCSLAAILLLIPSVAFAADS came in with an AmyQ secretion efficiency of 2.83.

Sequence MRMLWRSLALCGLALTLALPCAQAAEP gave an AmyQ secretion efficiency of 2.19.

In turn, MKRIRIPMTLALGAALTIAPLSFASAAPK returned an AmyQ secretion efficiency of 1.85.

As for MKKTTTKYFMFGLVMGFSQFQPSTVFAADK, the AmyQ secretion efficiency was determined as 3.56.

On to MKLKKRVSMFLVALTMCGGLFVEPAKAVKT, for which the AmyQ secretion efficiency came out at 2.69.

MKKIVSILFMFGGFSQFQPSTVFAADK: the AmyQ secretion efficiency turned out to be 4.29.

On to MKLKSKLLLSCLALSTVFVATTIANLPTH, for which the AmyQ secretion efficiency was 6.34.

For the sequence MKLAKRVSALTPSTTLAITMKAKEL, the AmyQ secretion efficiency turned out to be 6.37.

“MTKRLSTTLTFLGIQAFAGGIILATAVLAAVFYLTDEDQAAAV” showed an AmyQ secretion efficiency of 6.23.

The sequence MKQIKKKRTSFMLLAMTGQTALAKDV returned an AmyQ secretion efficiency of 6.55.

MGLGKKLKKRKRRSFMSLSISLPGVQAAEG: the AmyQ secretion efficiency turned out to be 7.65.

Sequence MKRTWNTTTVCLTALLSVLLVAGSVPFHAEAKKP registered an AmyQ secretion efficiency of 2.17.

The sequence MKKAFILSAAAAVGLFTFTSVVGASAKEL came in with an AmyQ secretion efficiency of 4.32.

The sequence MKRLFMKASLVLFAVVFVFKPAKAETH displayed an AmyQ secretion efficiency of 3.15.

In turn, MKVCQKSIVRFRKRRIIGTFVISVPFMANAQSD registered an AmyQ secretion efficiency of 7.62.

MRFTKVVGFLSVLGLAAVFPLTAQGEKA: the AmyQ secretion efficiency is 2.12.

MYSAIIIAIIAAVIVIAALITFNVRNASPG showed an AmyQ secretion efficiency of 7.59.

MKKWIYVRKKRSIAGIGGFSVHAASS displayed an AmyQ secretion efficiency of 7.24.

MKKAFLVFLSVVVKQQESVAQAKQL displayed an AmyQ secretion efficiency of 7.51.

Consider MKRITIIITMFIAAAVISLTGTAEAAEK, for which the AmyQ secretion efficiency was 2.84.

MKRRKTAYLLLGILCSAAVFLIGAPSRALGAEV returned an AmyQ secretion efficiency of 2.77.

MKRITINSNFSNIITMFIAAAVISLTGTAEAAEK registered an AmyQ secretion efficiency of 3.07.

Consider MKKRQIAPGLLSAASLAFFAMSGSAQAAAY, for which the AmyQ secretion efficiency amounted to 4.58.

Sequence MRKKLKWLSFLLGFIILLFLFKYQQSNNDS returned an AmyQ secretion efficiency of 6.25.

Take MKRTWNVCKRALLSVLLVAGSVPFHAEAKKP: the AmyQ secretion efficiency came to 3.1.

For MKKKQVMLALTAAAGLGLTALHSAPAAKLAPL, the AmyQ secretion efficiency came out at 4.96.

Consider MKLKKRVSYFLVALTMCGGLFVTPAKAVKT, for which the AmyQ secretion efficiency was determined as 6.42.

On to MKRTWNVCLTALLSVLLVAGSVRRRRKRKHAEAKKP, for which the AmyQ secretion efficiency amounted to 8.2.

In the case of MRHKIITFILAVVVIIIIGNMIGGGGGSEETSK, the AmyQ secretion efficiency is 7.2.

In the case of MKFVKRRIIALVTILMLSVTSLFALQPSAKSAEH, the AmyQ secretion efficiency was 2.64.

On to MKKQIITATTAVVLGSTLFAGAASGQSI, for which the AmyQ secretion efficiency stood at 2.03.

The sequence MKTLRTKCRKKILSGVIFFGLKIDAKDI had an AmyQ secretion efficiency of 6.97.

For MLKRLIAPMLLSAASLAFFAMSGSAQAAAY, the AmyQ secretion efficiency was determined as 3.75.

With MKKRLIGFLVLVPALIMSGITLIERNKK, the AmyQ secretion efficiency worked out at 6.81.

In turn, MTFTKVVGFLSVLGLAAVFPLTAQAEKA had an AmyQ secretion efficiency of 3.02.

In turn, MFNRLFRVCFLAALIMAFTLPNSVYNQKP registered an AmyQ secretion efficiency of 6.82.

For the sequence MAAQTDYKKQVVGILLSLAFVLFVFSPSERHE, the AmyQ secretion efficiency turned out to be 5.34.

In the case of MKNMSCKLVVSVTLFFSFLTIGPLAHAQND, the AmyQ secretion efficiency was 1.22.

The sequence MKKELLASLVLCLSLKRLVSTNKVFAATT registered an AmyQ secretion efficiency of 7.51.

MMIKQCVICLSLLVFGTTASGTAHAEET gave an AmyQ secretion efficiency of 2.45.

MRKIIGWILLLCIIPLFAFTVIASGKEV yielded an AmyQ secretion efficiency of 7.63.

In the case of MGLGKKLSVAVAASFMSLSISLPGIQAAEG, the AmyQ secretion efficiency is 1.56.

For MRKILALFVLSLGLLSFMVTPVSAASK, the AmyQ secretion efficiency stood at 1.58.

The sequence MGCGTQGKGSGIASFPVSAQAKDQ gave an AmyQ secretion efficiency of 6.09.

Regarding MKKKRMSFVAVAALSTTAFGAHASAKEI, the AmyQ secretion efficiency came out at 4.12.

MKVPKTMLKKRKRKLLLSLTATSVSAHYV: the AmyQ secretion efficiency amounted to 5.33.

MKRLKKTLLIGIMLLTFAPSAFAKQD gave an AmyQ secretion efficiency of 1.92.

For the sequence MKKVGLLAGCLAAGGFSYNAFATEN, the AmyQ secretion efficiency came to 6.86.

The sequence MKLKKRVSMFLVALTMCGGLFVTPPFVAKAVKT registered an AmyQ secretion efficiency of 4.47.

In turn, MKMKSGMEQAVSVLLLLSRLPVQYSLTSE had an AmyQ secretion efficiency of 5.01.

For the sequence MKSKGSIMACLILFSFTITTFINTETESAFSN, the AmyQ secretion efficiency came to 7.01.

For the sequence MKRLLSTLLIGIMLLTFAPSAFCKQD, the AmyQ secretion efficiency worked out at 2.6.

Sequence MFNRLFRVCFLAALIMAFTLPNSLYAQKP came in with an AmyQ secretion efficiency of 2.72.

MKRLFMKASLVLFAVVFVFAVKGAPIKAETH showed an AmyQ secretion efficiency of 2.24.

MKKRFSLKKRRGLLFGLTSPAFAAEK registered an AmyQ secretion efficiency of 8.62.

Take MKKWMAGLFLAAAVLLCLMVPQQLQGASS: the AmyQ secretion efficiency was found to be 5.67.

MKKAFILSAAAAVGLFTFGGVQQASVKEL: the AmyQ secretion efficiency stood at 6.39.

Sequence MLCKKMLLFSAIASFPVSAQAKDQ gave an AmyQ secretion efficiency of 4.84.

Regarding MNKLKRLSMLTVMIASVFIFSSHALVAQY, the AmyQ secretion efficiency was determined as 5.99.

Take MKWMCSICCAAVLLAGGAKQAEAV: the AmyQ secretion efficiency was found to be 2.68.

MKKRFSLIMMFILLFMLMSPAFAAEK registered an AmyQ secretion efficiency of 3.79.

Regarding MMIKQCVICLSLLVFGTTAAHARKR, the AmyQ secretion efficiency was 6.42.

MKVCQKSIVRFLVSLIIGTFVISVPFMANAQSK gave an AmyQ secretion efficiency of 2.23.

For MLKKIALTLCPAIVGSLLFFTAPCSAHVS, the AmyQ secretion efficiency turned out to be 3.32.

The sequence MKRVCLTALLSVLLVAGSVPFHAEAKKP registered an AmyQ secretion efficiency of 2.1.

MKKVLMAFIICLSLILSVLAAPPSGAKIESV gave an AmyQ secretion efficiency of 5.54.

Consider MKKGIIRFLLVSFVLFFALSTGITGVQCAPA, for which the AmyQ secretion efficiency is 6.36.

The sequence MTMLSMIIGWILLLCIIPLFAFTVIASGKEV registered an AmyQ secretion efficiency of 7.31.

With MKRLFMKASLVLFAVVFVFAVKGAPMKAETH, the AmyQ secretion efficiency came out at 1.95.

In the case of MRKKKWMVGLLAGCLAAGGFSYNAFATEN, the AmyQ secretion efficiency worked out at 3.58.

For the sequence MRSYIKVLTMCFLGLILFVFTALADNS, the AmyQ secretion efficiency turned out to be 7.29.

With MKKWIYVVLVLSIAGIGGFSVHAKKR, the AmyQ secretion efficiency was 6.58.

For the sequence MAIIIAIIAAVIVIAALITFNVWNASPG, the AmyQ secretion efficiency is 7.05.

MKKRLIAPMLLSAASLAFFAMSGSAQWAAY yielded an AmyQ secretion efficiency of 6.21.

In turn, MRKRRTIFAFLTGLMMFGTITAASASPD registered an AmyQ secretion efficiency of 4.74.

MKKLIMALVILGALRKRYISADSS displayed an AmyQ secretion efficiency of 7.22.

As to MKKAAAVLLSLGLVFGFSYGAGHVAEAAED, the AmyQ secretion efficiency worked out at 3.87.

Sequence MTSGTLWISLLFALTLIFTMAFSNMSAQAAGK had an AmyQ secretion efficiency of 2.62.

Turning to MKVLLSALLLLLFAFEPSASMKKL, the AmyQ secretion efficiency was 6.8.

Sequence MKWMCSICCAAVLLAGGTAQAEAV yielded an AmyQ secretion efficiency of 2.47.

The sequence MKVCQKSIVRFLVSLIIGTFVIRKKFMANAQSD returned an AmyQ secretion efficiency of 6.59.

MRKKCKVCLWILVLLLSCLSGKSAYAATS registered an AmyQ secretion efficiency of 2.26.

MLCVMMLLFSAIASFPVSDQAKDQ had an AmyQ secretion efficiency of 5.98.

Turning to MTQFAITLSVLCALILLVPTLLVIPFQHNKEAGASV, the AmyQ secretion efficiency stood at 7.59.

As to MKKKLAAGLTASAIVGTTLVVTPAEAKRK, the AmyQ secretion efficiency amounted to 6.02.

In turn, MKKVMLATALFLGLTPANAADL gave an AmyQ secretion efficiency of 8.14.

MMKCVICLSLLVFGTTAAHAEET had an AmyQ secretion efficiency of 3.1.

MNLRKILLSSALSLGMLVSAAPVLSTSS registered an AmyQ secretion efficiency of 4.72.
